In patent publication US20240092836A1 (GENEFRONTIER, published 2024):
Bridges are numbered along the chain shown (N, C = ends). Where no end group is shown, it is not given here.

T1: Orencia
T1 sequence (chain, INN chains, looked up, looked up): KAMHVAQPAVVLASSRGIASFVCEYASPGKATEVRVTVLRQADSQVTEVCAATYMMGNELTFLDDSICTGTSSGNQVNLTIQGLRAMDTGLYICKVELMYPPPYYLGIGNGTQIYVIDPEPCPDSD

T2: CTLA4 of the CTLA4:B7-1[Biotinylated] Inhibitor Screening Assay Kit (BPS Bioscience) (human, UniProt P16410 37-162, limits assumed)
T2 construct: Kit protein
T2 sequence: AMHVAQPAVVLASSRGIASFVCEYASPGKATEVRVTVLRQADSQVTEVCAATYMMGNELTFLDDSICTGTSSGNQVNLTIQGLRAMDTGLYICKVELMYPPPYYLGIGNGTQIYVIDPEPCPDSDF

T3: CTLA-4 expressed on the cell surface of CHO cells (Homo sapiens (Human), UniProt P16410 36-223)
T3 construct: also called CTLA-4 with its natural structure
T3 sequence: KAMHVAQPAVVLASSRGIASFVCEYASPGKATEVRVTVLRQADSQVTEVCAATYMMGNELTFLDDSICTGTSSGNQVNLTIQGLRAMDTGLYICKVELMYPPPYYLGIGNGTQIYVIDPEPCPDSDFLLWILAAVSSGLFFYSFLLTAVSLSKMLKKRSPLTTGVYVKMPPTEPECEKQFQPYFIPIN


Experiments:
[1] = molecular target: T1, Orencia; assay: ELISA, MBP fusion in E. coli lysate on Orencia
Procedure: (§1) 10 μL of E. coli cultured medium was added with 90 μL of PBS and 40 μL of lysis reagent (20 μL BugBuster Protein Extraction Reagent (Novagen), 20 μL Lysozyme solution 2.5 mg/mL) to lyse E. coli cells for 1 hour at room temperature. […] In parallel, antigen protein was immobilized overnight at 4° C. in 384-well plates at 100 ng/20 μL per well, and each well was washed twice with 100 μL/well of TBST, added with 100 μL/well of 5% skim milk solution (TBST) for blocking for 1 hour at room temperature, and washed twice with 100 μL/well of TBST to obtain antigen-immobilized plates. 20 μL/well of blocking-treated E. coli extract was added to the antigen-immobilized plates and gently stirred at room temperature using a plate mixer. […] The plates were washed 5 times with 100 μL/well of TBST, and binding of cyclic peptides to the antigen was detected by 20 μL/well of chromogenic substrate (0.4 mg/mL 3,3′,5,5′-Tetramethyl-benzidine, 0.01% hydrogen peroxide). After 15 minutes of reaction at room temperature, the reaction was stopped with 20 μL/well of 2N HCl, and absorbance at 450 nm was measured using a plate reader (infinite F200: TECAN) (Table 5).
(§2) An Error-Prone Library was prepared based on H12SSI-Ctla4-3-02, and Affinity Maturation selection experiments were performed. The cyclic peptide genes obtained in each round were subcloned, 94 single colonies were cultured in 96-well plates, and the CTLA-4 binding activity of each MBP-fused cyclic peptide was examined by ELISA.

[2] = molecular target: T1, Orencia; assay: ELISA, signal on Orencia over SA
Procedure: as §1, §2

[3] = molecular target: T2, CTLA4 of the CTLA4:B7-1[Biotinylated] …; assay: CTLA4:B7-1[Biotinylated] Inhibitor Screening Assay Kit, synthetic peptide against biotinylated B7-1
Source text: Inhibitor Screening Assay Kit (BPS Biosciences) as described above.

[4] = molecular target: T3, CTLA-4 expressed on the cell surface of …; assay: FACS on CHO cells expressing CTLA-4, synthetic peptide

Binder	ELISA A450 [1]	S/N(SA) [2]	IC50 [3]	EC50 [4]
GGCMHPFLPVVSHHFCRG (peptide, not shown: large carriers; small tags and cut ends, MBP fusion) [C4-302mat-2-100-18]	0.857	16.1		
GGCMHPYLPVISHHFCGG (peptide, not shown: large carriers; small tags and cut ends, MBP fusion; also called #15) [C4-302mat-2-1-27]	0.785	13.7		
GGCMHPFLPVASHHFCGG (peptide, not shown: large carriers; small tags and cut ends, MBP fusion) [C4-302mat-1-1-35]	0.534	11.2		
GGCMHPFLPVVSRHFCGG (peptide, not shown: large carriers; small tags and cut ends, MBP fusion; also called #24) [C4-302mat-3-1-5]	0.438	5.9		
GGCVHPFLPVVSHHFCRG (peptide, not shown: large carriers; small tags and cut ends, MBP fusion; also called #12) [C4-302mat-3-100-20]	0.221	3.7		
GSCMHPFLPVASRHFCGR (peptide, not shown: large carriers; small tags and cut ends, MBP fusion; also called #23) [C4-302mat-3-1-31]	0.868	13.2		
GGCMHPFLLVVSHHFCGG (peptide, not shown: large carriers; small tags and cut ends, MBP fusion; also called original clone; Original) [H12SSI-Ctla4-3-02 (MBP fusion)]	0.228	4.3		
GGCMHPFLPVASHHFCAG (peptide, not shown: large carriers; small tags and cut ends, MBP fusion) [C4-302mat-3-100-27]	0.927	16.6		
GGCMHPFLLTVSRHFCGG (peptide, not shown: large carriers; small tags and cut ends, MBP fusion; also called #44) [C4-302mat-3-1-11]	0.412	8.1		
GGCMHPFLRVVSHHFCGG (peptide, not shown: large carriers; small tags and cut ends, MBP fusion; also called #32) [C4-302mat-1-1-37]	0.665	14.2		
GGCMHPFLKIASHHFCGG (peptide, not shown: large carriers; small tags and cut ends, MBP fusion; also called #36) [C4-302mat-3-1-8]	0.555	8.2		
GGCMHPFLPILSHHFCAG (peptide, not shown: large carriers; small tags and cut ends, MBP fusion; also called #21) [C4-302mat-3-1-32]	0.656	11.4		
GGCMHPYLQVVSHHFCGR (peptide, not shown: large carriers; small tags and cut ends, MBP fusion) [C4-302mat-3-1-2]	1.45	21.9		
GGCMHPFLLVASHHFCGV (peptide, not shown: large carriers; small tags and cut ends, MBP fusion) [C4-302mat-2-1-37]	0.12	2.3		
GGCMHPYLLVVSHHFCGR (peptide, not shown: large carriers; small tags and cut ends, MBP fusion; also called #40) [C4-302mat-2-100-24]	0.227	4		
GGCRHPFLPIVSRHFCRG (peptide, not shown: large carriers; small tags and cut ends, MBP fusion; also called #11) [C4-302mat-3-1-45]	0.689	11.2		
GGCMHPFLQVASHHFCGG (peptide, not shown: large carriers; small tags and cut ends, MBP fusion) [C4-302mat-2-1-40]	0.366	6.9		
GGCKHPFLLIVSHHFCGR (peptide, not shown: large carriers; small tags and cut ends, MBP fusion; also called #45) [C4-302mat-3-100-39]	0.136	2.3		
GGCIHPFLQVVSHHFCGG (peptide, not shown: large carriers; small tags and cut ends, MBP fusion; also called #28) [C4-302mat-1-1-21]	0.155	2.7		
GGCMHPFLPIASLHFCGR (peptide, not shown: large carriers; small tags and cut ends, MBP fusion; also called #20) [C4-302mat-3-1-23]	1.21	19.7		
GGCMHPFLQVVSHHFCGG (peptide, not shown: large carriers; small tags and cut ends, MBP fusion; also called #27) [C4-302mat-2-100-4]	0.545	9.3		
GGCMHPFLPVVSRHFCGR (peptide, not shown: large carriers; small tags and cut ends, MBP fusion; also called #25) [C4-302mat-3-1-12]	0.95	17.9		
GGCMHPFLQTVSHHFCGG (peptide, not shown: large carriers; small tags and cut ends, MBP fusion; also called #22) [C4-302mat-3-1-35]	0.299	5.3		
GGCMHPFLQVVSHHFCGS (peptide, not shown: large carriers; small tags and cut ends, MBP fusion; also called #26) [C4-302mat-2-1-35]	0.904	17.9		

Binder	ELISA A450 [1]	S/N(SA) [2]	IC50 [3]	EC50 [4]
GGCKHPFLPVVSHHFCGG (peptide, not shown: large carriers; small tags and cut ends, MBP fusion; also called #13) [C4-302mat-3-100-9]	0.779	14.4		
GGCMHPFLRIVSQHFCRR (peptide, not shown: large carriers; small tags and cut ends, MBP fusion; also called #35) [C4-302mat-2-1-24]	0.14	2.4		
GGCMHPFLPVASHHFCGR (peptide, not shown: large carriers; small tags and cut ends, MBP fusion; also called #6) [C4-302mat-3-1-22]	1.11	18.9		
GCMHPFLPIVSHHFCER (disulfide 2-15 (inferred), chemically synthesised, glycine added to the N-terminus; also called synthesized peptide (Clone No. #19)) [Gly-clone #19: GCMHPFLPIVSHHFCER]			11.5 µM	
GGCMHPFLPVVSHHFCGA (peptide, not shown: large carriers; small tags and cut ends, MBP fusion) [C4-302mat-3-1-48]	0.903	14.6		
GGCMHPYLLVASHHFCER (peptide, not shown: large carriers; small tags and cut ends, MBP fusion; also called #39) [C4-302mat-3-1-9]	0.574	8.8		
GGCVHPFLQVVSHHFCGG (peptide, not shown: large carriers; small tags and cut ends, MBP fusion; also called #29) [C4-302mat-1-100-23]	0.25	5.4		
GGCMHPFLPVVSHHFCGG (peptide, not shown: large carriers; small tags and cut ends, MBP fusion) [C4-302mat-1-1-24]	0.78	14.7		
GGCMHPFLLVVSRHFCGR (peptide, not shown: large carriers; small tags and cut ends, MBP fusion) [C4-302mat-2-100-40]	0.204	3.9		
GGCMHPYLPVISHHFCGR (peptide, not shown: large carriers; small tags and cut ends, MBP fusion; also called #16) [C4-302mat-3-100-12]	1.18	19.4		
GGCLHPFLPIVSHHFCGR (peptide, not shown: large carriers; small tags and cut ends, MBP fusion; also called clone #10; No. #10) [C4-302mat-3-100-44]	1.14	18.5		
GGCMHPFLRVVSHHFCGR (peptide, not shown: large carriers; small tags and cut ends, MBP fusion; also called #33) [C4-302mat-3-1-14]	0.985	15.5		
GGCKHPYLPVASHHFCRG (peptide, not shown: large carriers; small tags and cut ends, MBP fusion; also called #14) [C4-302mat-3-1-10]	0.586	10.3		
CMHPFLPIVSHHFCER (disulfide 1-14 (inferred); also: form used in FACS not given here: biotinylated or N-terminal Gly) [No. #19 synthetic peptide used in FACS]				0.47 µM
GDCKHPYLLTVSHHFCGR (peptide, not shown: large carriers; small tags and cut ends, MBP fusion; also called #42) [C4-302mat-3-1-25]	0.264	4.3		
GSCMHPFLLVASHHFCRG (peptide, not shown: large carriers; small tags and cut ends, MBP fusion; also called #38) [C4-302mat-2-100-33]	0.117	2.3		
GGCKHPFLRVVSHHFCRR (peptide, not shown: large carriers; small tags and cut ends, MBP fusion; also called #34) [C4-302mat-2-1-12]	0.51	8.5		
GGCMHPFLPVVSHHFCGR (peptide, not shown: large carriers; small tags and cut ends, MBP fusion) [C4-302mat-3-100-37]	1.17	18		
GGCMHPFLPIVSHHFCGS (peptide, not shown: large carriers; small tags and cut ends, MBP fusion; also called #18) [C4-302mat-2-100-27]	1.29	25.2		
GGCMHPFLPVTSHHFCGG (peptide, not shown: large carriers; small tags and cut ends, MBP fusion; also called #17) [C4-302mat-2-1-3]	0.802	14.8		
GGCMHPYLLVVSRHFCGR (peptide, not shown: large carriers; small tags and cut ends, MBP fusion; also called #41) [C4-302mat-3-1-15]	0.351	5.4		
GGCLHPFLPLVSHHFCGG (peptide, not shown: large carriers; small tags and cut ends, MBP fusion; also called #9) [C4-302mat-2-1-38]	0.807	16.4		
GGCLHPFLPVVSHHFCGD (peptide, not shown: large carriers; small tags and cut ends, MBP fusion; also called #8) [C4-302mat-2-1-2]	1.2	23.5		
